In article PMC6949295 (2020) one finds response (relative band intensity) data, which are given here for 3 substances.

Test in all cases: co-immunoprecipitation (IP: HA, blot: Flag)
What all share (conditions): 293T cells; parent: 1.00

Test [1] has as its target HA-Exo70(S59D).
The target in test [2] is HA-Exo70(S47D/S59D).
The target in test [3] is HA-Exo70(S47D).

Take “Exo70 wild type, HA-tagged and Flag-tagged copies co-expressed (from UniProt O54922) S59D”: the response (relative band intensity) in test [1] was 1.

On to “Exo70 wild type, HA-tagged and Flag-tagged copies co-expressed (from UniProt O54922) S47D; S59D”, for which the response (relative band intensity) in test [2] is 0.96. “Exo70 wild type, HA-tagged and Flag-tagged copies co-expressed (from UniProt O54922) S47D”: in test [3], the response (relative band intensity) was 1.
